Molecular target: the molecule itself
Experiment: SEC; Ni-NTA eluate of His-PANK3 further subjected to size-exclusion gel chromatography; all purification steps at 4 °C

B1: His-tagged recombinant human PANK3 protein (residues Pro12 to Asn368) (enzyme, UniProt Q9H999 12-368, looked up)
chain: PWFGMDIGGTLVKLSYFEPIDITAEEEQEEVESLKSIRKYLTSNVAYGSTGIRDVHLELKDLTLFGRRGNLHFIRFPTQDLPTFIQMGRDKNFSTLQTVLCATGGGAYKFEKDFRTIGNLHLHKLDELDCLVKGLLYIDSVSFNGQAECYYFANASEPERCQKMPFNLDDPYPLLVVNIGSGVSILAVHSKDNYKRVTGTSLGGGTFLGLCSLLTGCESFEEALEMASKGDSTQADKLVRDIYGGDYERFGLPGWAVASSFGNMIYKEKRESVSKEDLARATLVTITNNIGSVARMCAVNEKINRVVFVGNFLRVNTLSMKLLAYALDYWSKGQLKALFLEHEGYFGAVGALLGLPN
notes: Pantothenate kinase 3 (PANK3), human, residues Pro12 to Asn368, from a pET28a plasmid bought from Addgene (25518); also called His-PANK3; recombinant PANK3; source: E. coli BL21 (DE3) and E. coli Rosetta2 (DE3), purified (Ni-NTA, size-exclusion chromatography); not shown: His6, N-terminal, kept
**Q.** How did the “stoichiometry N” value turn out when B1 was run?
**A.** 2
